The values below come from the nanobody polyreactivity screen of Harvey et al. (2022).

The data set in a line: yeast display, Sf9 membrane polyspecificity reagent, FACS + sequencing; frameworks hold sequencing errors. The gist of the method:
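Sorting gates, low and high (top ~1%), were placed on anti-HA fluorescence to track expression and on streptavidin fluorescence to track reagent binding. A clone's polyreactivity label is taken from the gate it came out of. The reagent was 10% biotinylated, detergent-solubilized Sf9 membrane, applied for 1 hour at 4 °C to galactose-induced yeast display cells.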
For the sequence “QVQLVESGGGLVQAGGSLRLSCAASGSTFYGYVMGWYRQAPGKERELVAGITRGGSTNYADSVKGRFTISRDNAKNTVYLQMNSLKPEDTAVYYCATRYFSRYYYWGQGTQVTVSS”, the “polyreactivity (PSR sort gate)” value is “high polyreactivity”.
Turning to “QVQLVESGGGLVQAGGSLRLSCAASGSTFYHYAMGWYRQAPGKERELVAAISWSGGSTYYADSVKGRFTISRDNAKNTVYLQMNSLKPEDTAVYYCNKAGRSWFRTGLGYWGKGTQVTVSS”, the “polyreactivity (PSR sort gate)” value was “high polyreactivity”.
Turning to “QVQLVESGGGLVQAGGSLRLSCAASGSTFYHYAMVWYRQAPGKERELVAAISSSGGRTYYADSVKGRFTISRDNAKNTVYLKMNSLKPEDTAVYYCAARAKTSGSIEDYWGQGTQVTVSS”, the “polyreactivity (PSR sort gate)” value is listed as “high polyreactivity”.
The result for “QVQLVESGGGLVQAGGSLRLSCAASGSTFYINALGGYRQAPGTERELVAAITWNSDSTYYADSVKGRFTISRDNAKNTVYLQMNSLKPEDTAVYYCNKDRIIWGRLYEEGDYWGQGTQVTVSS” reads “low polyreactivity”.
Then “QVQLVESGGGLVQAGGSLRLSCAASGSTFYINTMGRYLQAPGKEREFVAAITWSGGSTYYADSVKGRFTISRDNAKNTVYLQMNSLKPEDTAVYYCAADLYVGDMDYWGQCTQVTVSS”, with “low polyreactivity”; and “QVQLVESGGGLVQAGGSLRLSCAASGSTFYIYAMGWYRQAPGKERELVARISGSGGSTYYADSVKVRFTISRDNAKNTVYLQMNSLKPEDTAVYYCAVDPPYSDSLSRYGYWGQGTQVTVSS”, with “low polyreactivity”; and “QVQLVESGGGLVQAGGSLRLSCAASGSTFYIYAMGWYRQAPGKERELVATISRGGSTNYADSVKGRFTISRDNAKNTVYLQMNSLKPEDTAVYYCAAEAAFTSYWWSVTYPYDYWGQGTQVTVSS”, with “high polyreactivity”.
The result for “QVQLVESGGGLVQAGGSLRLSCAASGSTFYIYVMGWYRQAPGKERELVATITWGGVSTYYADSVKGRFTISRDNAKNTVYLQMNSLKTEDTAVYYCATRGKSHGQQFNYWGQGTQVTVSS” reads “high polyreactivity”; that for “QVQLVESGGGLVQAGGSLRLSCAASGSTFYKYAMGGYRQAPGKERELVAAISTRGGSTYYADSVKGRFTISRDNAKNTVYLQMNSLKPEDTAVYYCAADGSGGHDDYWGQGTQVTVSS”, “high polyreactivity”; that for “QVQLVESGGGLVQAGGSLRLSCAASGSTFYKYAMGWYRQAAGKERELVASISRSGGSTSYADSVKGRFTISRDNGKNTVYLQMYCLKPEDTAVYYCAATWRQHPGSMGYWGQGTQVTVSS”, “high polyreactivity”.
Regarding “QVQLVESGGGLVQAGGSLRLSCAASGSTFYKYAMGWYRQAPGKERELVAAISTRGGSTYYADSVKWRFTISRDNAKNTVYLQMNSLKPEDTAVFYCAADGRGGHDVYWGQGSQVTVSS”, the “polyreactivity (PSR sort gate)” value was “high polyreactivity”.
Then “QVQLVESGGGLVQAGGSLRLSCAASGSTFYKYAMGWYRQAPGKERELVASISRSGGSTSYADSVKGRFTISRDYAKNTVYLQMNSLKPEDTAVYYCAATWRQHPGSMGYWGQGTQVTVSS”, with “high polyreactivity”; and “QVQLVESGGGLVQAGGSLRLSCAASGSTFYKYAMGWYRQAPGKERELVATINISGGSTSYADSVKGRFTISRDYAKNTVYLQMNSLKPEDTAVYYCAASLTRHGYYRRFDYWGQGTQVTVSS”, with “high polyreactivity”; and “QVQLVESGGGLVQAGGSLRLSCAASGSTFYKYVMGWYRQAPGKERELVAAISWSGGSTYYADSVKGRFTISRDNAKNTVYLQMNSLKPEDPAVYYCAAETYAYLFHTYDYWGQGTQVTVSS”, with “low polyreactivity”.
Then “QVQLVESGGGLVQAGGSLRLSCAASGSTFYLNVMGWYRQAPGKERELVAAISSSGGSTYYADSVKGRFTISRDNAKNTVYLQMNSLKPEDTAVYYCNKVSAFPHYSGYDYWGQGTQVTVSS”, with “low polyreactivity”.
The result for “QVQLVESGGGLVQAGGSLRLSCAASGSTFYLYAMGWYRQAPGKEREFVAAISWSGGRTYYADSVKGRFTISRDNAKNTVYLQMNSLKPEYTAVYYCAARRRYTWQYTRYDMGYWGQGTQVTVSS” reads “low polyreactivity”; that for “QVQLVESGGGLVQAGGSLRLSCAASGSTFYLYAMGWYRQAPGKERELVAAISRGGTTYYADSVKGRFTISRDNAKNTVYLKMNSLKPEDTAVYYCAARRPWWYGGGMDYWGQGTQVTVSS”, “high polyreactivity”.
In the case of “QVQLVESGGGLVQAGGSLRLSCAASGSTFYLYAMGWYRQAPGKERELVAAISYSDGSTYYADSVKGRFTISRDNAKNTVYLQMNSMKPEDTAVYYCAAQHYVRSSIPGFIYYYWGQGTQVNVSS”, the “polyreactivity (PSR sort gate)” value is “high polyreactivity”.
Then “QVQLVESGGGLVQAGGSLRLSCAASGSTFYLYAMGWYRQAPGKERELVAGITGSGGRTYYADSVKGRFTISRDNAKNTVYLQLNSLKPEDTAVYYCNKRRASWSPAGGTYNYWGQGSQVTVSS”, with “low polyreactivity”; and “QVQLVESGGGLVQAGGSLRLSCAASGSTFYLYARGWFSQAPGKVRELGAAIRTSGGSTYYADSGKGRFTISRDTAKNTVYLQMNSLKPEDTAVYSCTAAWPYNSVEYWGQGTQVTVSS”, with “low polyreactivity”.
Then “QVQLVESGGGLVQAGGSLRLSCAASGSTFYNNAMGWYRQAPGKEREFVAAIRYRGGSTYYADSVKGRFTISRDNAKNTVYLQMNSLKPEDTAVYYCAADQGVYRTYWVDYWGQGTQVTVSS”, with “high polyreactivity”; and “QVQLVESGGGLVQAGGSLRLSCAASGSTFYNNAMGWYRQAPGKERELVATISASSTSTYYADSVKGRFTISRDNAKNTVYLQMNSLKPEDTAVYYCAKDYVHGSTYGYYWYGYDYWGQGTQVTVSS”, with “low polyreactivity”.
The result for “QVQLVESGGGLVQAGGSLRLSCAASGSTFYNYAMGWSRQAPGKERELVASITWNGGSTYYADSVKGRFTISRDNAKNTVYLQMNSLKPEDTAVYYCAADWTWTYPYDYWGQGTQVTVSS” reads “low polyreactivity”; that for “QVQLVESGGGLVQAGGSLRLSCAASGSTFYNYAMGWYRQAPGKERELVASITWNGGSTYYADSVKGRFTISRDNAKNTVYLQMNSLKPEDTAVYYCAADWTWTYPYDYWGQGTQVTVSS”, “low polyreactivity”; that for “QVQLVESGGGLVQAGGSLRLSCAASGSTFYPNAMGWYRQAPGKERELVAAITDSVGTTNYADSVKGRFTISRDNAKNTVYLQINSLKPEDTAVYYCTAPIGGSYNTRRAAEYDYWGQGTQVTVSS”, “low polyreactivity”.
With “QVQLVESGGGLVQAGGSLRLSCAASGSTFYPTYAMGWYRQAPGKERELVATITGSGGSTYYADSVKGRFTSSRDNAKNTVYLQMNSLKPEDTAVYYCAADRWYSRYTRYGYWGQGTQVTVSS”, the “polyreactivity (PSR sort gate)” value is reported as “low polyreactivity”.
The result for “QVQLVESGGGLVQAGGSLRLSCAASGSTFYPYAMGRYRQAPGKERELVAAISSGGSTSYADSVKGRFTISRDNAKNTVYLQLNSLKPEDTAVYYCNASSPGAVPVYDYDYWGQGTQVTVSS” reads “low polyreactivity”; that for “QVQLVESGGGLVQAGGSLRLSCAASGSTFYPYAMGWYRPAPGKERELVAAINWSGGTTYYADSVKGRFTISRDNAKNTVYLQMNSLKPVDTAVYYCAADGYPPGYGYWGQGTQVTVSS”, “low polyreactivity”; that for “QVQLVESGGGLVQAGGSLRLSCAASGSTFYPYAMGWYRQAPGKEREFVAAIRSSGTSTYYADSVKGRFTISRDNAKNTVYLQMNSLKPEDTEVYYGAARVRGDSVSRTKPASIGGGSWGQGTQVTVSS”, “high polyreactivity”.
As to “QVQLVESGGGLVQAGGSLRLSCAASGSTFYQYAMGWYRQAPGKERELVAAITGSGTRTYYADSVKGRFTISRDNAKNTVYLQMNSLKPEDTAVYYCAAQKYYQGYNYWGQGTQVTVSS”, the “polyreactivity (PSR sort gate)” value is “high polyreactivity”.
Then “QVQLVESGGGLVQAGGSLRLSCAASGSTFYQYVMGWYRQAPGKESELVAAISSSGGSTYYADSVKGRFTISRDNAKNTVYLQMTSLKPEDTAVYYCAVDNYRGYGHDYYWGQGTQVTVSS”, with “low polyreactivity”; and “QVQLVESGGGLVQAGGSLRLSCAASGSTFYRNAMAWYRQAPGKERELVAAISSTGGSTYYADSVKGRFTISRDNAKNTVYLQMNSLKPEDTAVYYCAVDPGLTKGFGYWGQGTQVTVSS”, with “low polyreactivity”; and “QVQLVESGGGLVQAGGSLRLSCAASGSTFYRNAMGWYRQAPGKEREFVADITLGGGSTYYADSVKGRFTISRDNAKNTVYLQMNSRKPEDTAVYYCAVDYWQLNYDYWGQGTQVTVSS”, with “low polyreactivity”.
The result for “QVQLVESGGGLVQAGGSLRLSCAASGSTFYRYAMGWYRPAPGKERELVAAISSSGGSTYYADSVKGRFTISRDNAKNTVYLQMNSLKPEDTAVYYGNADVHSQYDYWGQGTQVTVSS” reads “low polyreactivity”.
The result for “QVQLVESGGGLVQAGGSLRLSCAASGSTFYRYAMGWYRQAPGKERELVAAISGSGGRTYYADSVKGRFTISRDNAKNTVYLQMNSLKPEDTAVYYCATRFGQRSDYWGQGTQVTVSS” reads “high polyreactivity”; that for “QVQLVESGGGLVQAGGSLRLSCAASGSTFYRYAMGWYRQAPGKERELVAAISQSGGRTYYADSVKGRFTISRDYAKNTVYLQMNSLKPEDTAVYYCAASWYYSLQRYGYWGQGTQVTVST”, “high polyreactivity”; that for “QVQLVESGGGLVQAGGSLRLSCAASGSTFYRYAMGWYRQAPGKERELVAAISSSGGRTYYADSVKGRFTISRDNAKKTVYLQMNSLKPEDTAVYYCAAKNAAYARYYYWGQGTQVTVSS”, “high polyreactivity”.
Turning to “QVQLVESGGGLVQAGGSLRLSCAASGSTFYRYAMGWYRQAPGKERELVAAISSSGGSTYYADSVKGRFTISRDNAKNTVYLQMNSLKPEDTAVYYCNAALTPYDYDYWGQGTQVTVSS”, the “polyreactivity (PSR sort gate)” value is given as “low polyreactivity”.
The result for “QVQLVESGGGLVQAGGSLRLSCAASGSTFYRYAMGWYRQAPGKERELVAAITARGGSTYYADSVKGRFTISRDNAKNTVYLQMNSLKPEDTAVYYCAADWLSTKNDYWGQGTQVTESS” reads “low polyreactivity”; that for “QVQLVESGGGLVQAGGSLRLSCAASGSTFYRYAMGWYRQAPGKERELVAAITRGGGRTYYADSVKGRFTISRDNAKNTVYLQMNSLKPEDTAVYYCNAASPYYDSWGQGTQVTVSS”, “high polyreactivity”.
In the case of “QVQLVESGGGLVQAGGSLRLSCAASGSTFYRYAMGWYRQAPGKERELVADITRSGDSTYYADSVKGRFTISRDNAKNTVYLQMNSLKPEDTAVYYCAREYPTIRYRLGYWGQGTQVTVSS”, the “polyreactivity (PSR sort gate)” value is recorded as “low polyreactivity”.
